Measurements taken from PMC11277218.

Experiments:
[1] = target: HPV16 pseudovirions (HPV16-PsVs) (human papillomavirus type 16) (UniProt P03101)
[2] = target: HPV16 pseudovirions (HPV16-PsVs) (human papillomavirus type 16) (UniProt P03101); remark: listed apart in the source
[3] = target: HPV16 pseudovirions (HPV16-PsVs) (human papillomavirus type 16) (UniProt P03101); remark: listed apart in the source

Sequence of UniProt P03101 (P03101 whole entry, chain 1 of 2): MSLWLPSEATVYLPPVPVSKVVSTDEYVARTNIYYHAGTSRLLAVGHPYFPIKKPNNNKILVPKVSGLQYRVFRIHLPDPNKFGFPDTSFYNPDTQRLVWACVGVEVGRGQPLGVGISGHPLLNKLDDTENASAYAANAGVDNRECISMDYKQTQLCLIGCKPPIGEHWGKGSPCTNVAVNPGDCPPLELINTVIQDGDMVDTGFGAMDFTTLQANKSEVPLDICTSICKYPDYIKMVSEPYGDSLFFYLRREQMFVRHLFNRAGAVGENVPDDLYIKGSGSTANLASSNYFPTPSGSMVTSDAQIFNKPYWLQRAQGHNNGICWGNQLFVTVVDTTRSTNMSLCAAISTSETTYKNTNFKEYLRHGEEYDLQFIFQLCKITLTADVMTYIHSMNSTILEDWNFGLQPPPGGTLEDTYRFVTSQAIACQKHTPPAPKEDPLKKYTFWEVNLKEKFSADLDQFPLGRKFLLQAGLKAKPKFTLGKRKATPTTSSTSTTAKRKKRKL
Sequence of UniProt P03101 (P03107 whole entry, chain 2 of 2, further chain): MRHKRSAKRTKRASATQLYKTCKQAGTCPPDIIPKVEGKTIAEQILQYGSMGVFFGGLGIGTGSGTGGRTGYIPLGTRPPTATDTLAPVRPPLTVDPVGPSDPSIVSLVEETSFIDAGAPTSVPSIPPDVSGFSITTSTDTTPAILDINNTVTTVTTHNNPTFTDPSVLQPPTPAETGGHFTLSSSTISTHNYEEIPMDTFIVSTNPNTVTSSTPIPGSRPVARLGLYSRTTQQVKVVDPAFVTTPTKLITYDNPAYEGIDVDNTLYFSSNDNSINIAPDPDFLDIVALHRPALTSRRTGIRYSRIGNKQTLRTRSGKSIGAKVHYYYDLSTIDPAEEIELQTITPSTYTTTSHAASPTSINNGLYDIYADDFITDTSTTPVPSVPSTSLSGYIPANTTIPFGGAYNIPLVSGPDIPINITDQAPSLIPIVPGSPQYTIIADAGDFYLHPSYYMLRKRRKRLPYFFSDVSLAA

“native human surfactant protein A (SP-A) (from UniProt Q8IWL2 21-248) (natural protein)” showed an infection of HaCaT monocultures by SP-A-preincubated PsVs, Gaussia luciferase at 48 h, against the BSA control [1] of 40 % reduction, an uptake of SP-A-preincubated AF488-PsVs into RAW264.7 macrophages, MFI by flow cytometry, fold of the BSA control [2] of 1.75 fold and an uptake of SP-A-preincubated AF488-PsVs into RAW264.7 macrophages, positive cells by flow cytometry, fold of the BSA control [2] of 2 fold. For the same substance, the uptake of SP-A-preincubated AF488-PsVs into THP-1-derived immature dendritic cells (DC0), positive cells by flow cytometry, fold of the BSA control [2] was 2 fold, the uptake of SP-A-preincubated AF488-PsVs into THP-1 monocytes, MFI by flow cytometry, fold of the BSA control [2] was 1.3 fold and the uptake of SP-A-preincubated AF488-PsVs into HaCaT keratinocytes, positive cells by flow cytometry, against the BSA control (fold decrease) [3] was 2.
